Data on twelve molecules can be found in US20250340636A1 (Memorial Sloan Kettering, published 2025).

Assay [1] concerns the target T1, recombinant L1CAM-Fc fusion protein (human, UniProt P32004 20-1120).
T1 construct: also called recombinant L1CAM protein; not shown: human Fc fused to the carboxy terminus
The assay is described as follows: BLI, L1CAM-Fc on AHC biosensors, Fab 3-200 nM, 1:1 fit. As for the experimental part:
Here, recombinant L1CAM-Fc fusion protein was immobilized onto anti-Human IgG Fc Capture (AHC) biosensors and binding of Fabs was measured kinetically over a 3-200 nM concentration range. Kinetic data were fitted to a 1:1 binding model to compute association (kₒₙ) and dissociation (koff) rate constants, in addition to equilibrium dissociation constants (KD) as shown in Table 87.
A general note: In BLI a coated tip is dipped into the sample, and binding shifts an interference pattern.

Assay [2] addresses T2, human L1CAM on cells (human, UniProt P32004 20-1257).
T2 construct: Overexpressed on stably transfected HEK293T cells or endogenous on MCF-7 and MDA-MB-231 cells; also called HEK293T-hL1CAM
The experiment in a line: flow cytometry, MCF-7 cells. As for the experimental part: (§1) Binding Analysis. […] Dissociation constants (KD) for binding to soluble human and cynomolgus monkey L1CAM-His were determined using biolayer interferometry (BLI). In addition, EC50 values for binding to cell-bound L1CAM were established by flow cytometry using HEK293T/FT cells overexpressing human or mouse L1CAM, MCF-7 cells, and MDA-MB-231 cells. In addition, the epitope regions of the mAbs were determined by BLI interaction analysis with L1CAM subdomains (Ig and FN) expressed individually, and by a BLI competition experiment to identify epitope bins.
For orientation: A flow cytometer gives signals particle by particle.

Assay [3] deals with T3, extracellular domain of human L1CAM (isoform 1) fused to a poly-histidine tag via its carboxy terminus (human, UniProt P32004 20-1120).
T3 construct: Bought (Creative Biomart); also called L1CAM-His; huL1CAM protein
The experiment in a line: BLI, soluble human L1CAM-His. As for the experimental part:
as §1

The target in assay [4] is T2, human L1CAM on cells. The experiment in a line: flow cytometry, MDA-MB-231 cells. The method, then:
as §1

The target in assay [5] is T4, soluble cynomolgus monkey L1CAM, His-tagged, monomeric (cynomolgus monkey, UniProt A0A2K5URB5 20-1120).
T4 construct: also called cyL1CAM protein; cynomolgus L1CAM-His
The experiment in a line: BLI, soluble cynomolgus L1CAM-His. The method, then:
as §1

In assay [6] the target is T2, human L1CAM on cells. The experiment in a line: flow cytometry, HEK293T cells overexpressing human L1CAM. The method, then:
as §1

Assay [7] addresses T5, mouse L1CAM on transiently transfected HEK293FT cells (mouse, UniProt P11627 20-1260).
T5 construct: whole, on cells; also called mouse L1CAM on cells
The assay is described as follows: flow cytometry, HEK293FT cells transfected with mouse L1CAM.

Assay [8] has as its target T2, human L1CAM on cells. The experiment in a line: cell-based or functional assay.
Assay [9] addresses T2, human L1CAM on cells. The experiment in a line: FACS on cells expressing L1CAM (293FT or MDA-MB-231; the table does not say which). As for the experimental part:
Briefly, CDR-grafted heavy and light chains were expressed in various combinations and the antigen-binding properties were evaluated.

Assay [10] concerns the target T3, extracellular domain of human L1CAM …. The assay is described as follows: BLI, soluble human L1CAM-His; off-rate below detection limit.

Some results are limits rather than exact numbers.

T3 sequence (P32004 20-1120): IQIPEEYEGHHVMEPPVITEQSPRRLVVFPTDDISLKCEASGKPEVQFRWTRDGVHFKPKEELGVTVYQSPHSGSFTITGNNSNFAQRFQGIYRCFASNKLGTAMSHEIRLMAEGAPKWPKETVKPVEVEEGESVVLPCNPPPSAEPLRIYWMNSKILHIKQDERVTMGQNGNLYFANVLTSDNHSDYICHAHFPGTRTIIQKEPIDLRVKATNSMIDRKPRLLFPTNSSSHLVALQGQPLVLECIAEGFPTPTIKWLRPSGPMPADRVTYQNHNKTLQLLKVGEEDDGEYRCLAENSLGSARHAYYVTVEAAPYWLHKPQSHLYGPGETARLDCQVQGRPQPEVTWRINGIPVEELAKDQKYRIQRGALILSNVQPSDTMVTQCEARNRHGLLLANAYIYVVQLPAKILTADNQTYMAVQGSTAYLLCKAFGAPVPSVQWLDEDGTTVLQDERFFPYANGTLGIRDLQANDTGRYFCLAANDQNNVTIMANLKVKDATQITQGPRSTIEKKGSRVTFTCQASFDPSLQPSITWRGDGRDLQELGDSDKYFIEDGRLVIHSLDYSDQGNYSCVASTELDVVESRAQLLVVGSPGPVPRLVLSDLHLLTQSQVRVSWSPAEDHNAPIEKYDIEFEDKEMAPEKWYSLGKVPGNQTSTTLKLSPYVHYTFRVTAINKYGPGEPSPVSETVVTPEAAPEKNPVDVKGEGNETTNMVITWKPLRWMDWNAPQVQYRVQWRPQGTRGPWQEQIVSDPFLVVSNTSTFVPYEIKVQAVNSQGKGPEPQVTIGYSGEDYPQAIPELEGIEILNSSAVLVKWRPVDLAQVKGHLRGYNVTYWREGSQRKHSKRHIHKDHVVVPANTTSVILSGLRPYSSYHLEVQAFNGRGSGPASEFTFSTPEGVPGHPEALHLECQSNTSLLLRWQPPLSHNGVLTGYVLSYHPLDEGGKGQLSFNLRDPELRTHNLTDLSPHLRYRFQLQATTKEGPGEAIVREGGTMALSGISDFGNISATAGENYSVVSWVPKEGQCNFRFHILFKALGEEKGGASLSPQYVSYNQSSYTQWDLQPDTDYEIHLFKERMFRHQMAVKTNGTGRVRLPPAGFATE
T1 sequence (P32004 20-1120): as above
T2 sequence (P32004 20-1257): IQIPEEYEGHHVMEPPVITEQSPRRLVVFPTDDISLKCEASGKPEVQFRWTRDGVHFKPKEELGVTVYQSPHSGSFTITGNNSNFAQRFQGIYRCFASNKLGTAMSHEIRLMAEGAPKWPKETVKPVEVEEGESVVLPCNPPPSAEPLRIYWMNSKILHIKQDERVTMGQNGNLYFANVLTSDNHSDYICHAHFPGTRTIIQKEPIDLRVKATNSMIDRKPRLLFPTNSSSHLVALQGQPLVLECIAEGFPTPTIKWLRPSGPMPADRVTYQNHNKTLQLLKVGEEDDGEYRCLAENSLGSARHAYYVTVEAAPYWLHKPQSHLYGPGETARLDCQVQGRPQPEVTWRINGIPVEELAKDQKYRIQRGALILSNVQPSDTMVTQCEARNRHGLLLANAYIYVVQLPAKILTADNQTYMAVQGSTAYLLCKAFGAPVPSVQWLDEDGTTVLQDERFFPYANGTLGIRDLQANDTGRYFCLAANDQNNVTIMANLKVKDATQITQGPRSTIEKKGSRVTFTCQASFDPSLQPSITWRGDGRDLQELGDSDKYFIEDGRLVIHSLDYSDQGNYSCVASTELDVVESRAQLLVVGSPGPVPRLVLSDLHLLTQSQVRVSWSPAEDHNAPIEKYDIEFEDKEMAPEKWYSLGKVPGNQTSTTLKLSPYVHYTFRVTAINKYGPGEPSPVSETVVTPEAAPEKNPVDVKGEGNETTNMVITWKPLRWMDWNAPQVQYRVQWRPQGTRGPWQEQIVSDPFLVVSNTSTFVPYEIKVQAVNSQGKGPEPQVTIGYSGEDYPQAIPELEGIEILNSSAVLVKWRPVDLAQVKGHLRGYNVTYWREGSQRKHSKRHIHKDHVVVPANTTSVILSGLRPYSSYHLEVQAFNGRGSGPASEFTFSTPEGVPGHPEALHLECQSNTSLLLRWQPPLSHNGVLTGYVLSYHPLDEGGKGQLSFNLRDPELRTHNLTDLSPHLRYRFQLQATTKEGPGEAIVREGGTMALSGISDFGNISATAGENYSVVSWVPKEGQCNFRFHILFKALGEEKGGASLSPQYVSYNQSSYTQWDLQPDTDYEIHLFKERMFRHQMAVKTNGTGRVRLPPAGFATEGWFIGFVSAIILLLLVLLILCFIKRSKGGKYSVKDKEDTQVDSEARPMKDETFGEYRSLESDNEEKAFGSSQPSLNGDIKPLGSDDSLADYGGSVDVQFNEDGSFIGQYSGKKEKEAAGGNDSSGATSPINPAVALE
T5 sequence (P11627 20-1260): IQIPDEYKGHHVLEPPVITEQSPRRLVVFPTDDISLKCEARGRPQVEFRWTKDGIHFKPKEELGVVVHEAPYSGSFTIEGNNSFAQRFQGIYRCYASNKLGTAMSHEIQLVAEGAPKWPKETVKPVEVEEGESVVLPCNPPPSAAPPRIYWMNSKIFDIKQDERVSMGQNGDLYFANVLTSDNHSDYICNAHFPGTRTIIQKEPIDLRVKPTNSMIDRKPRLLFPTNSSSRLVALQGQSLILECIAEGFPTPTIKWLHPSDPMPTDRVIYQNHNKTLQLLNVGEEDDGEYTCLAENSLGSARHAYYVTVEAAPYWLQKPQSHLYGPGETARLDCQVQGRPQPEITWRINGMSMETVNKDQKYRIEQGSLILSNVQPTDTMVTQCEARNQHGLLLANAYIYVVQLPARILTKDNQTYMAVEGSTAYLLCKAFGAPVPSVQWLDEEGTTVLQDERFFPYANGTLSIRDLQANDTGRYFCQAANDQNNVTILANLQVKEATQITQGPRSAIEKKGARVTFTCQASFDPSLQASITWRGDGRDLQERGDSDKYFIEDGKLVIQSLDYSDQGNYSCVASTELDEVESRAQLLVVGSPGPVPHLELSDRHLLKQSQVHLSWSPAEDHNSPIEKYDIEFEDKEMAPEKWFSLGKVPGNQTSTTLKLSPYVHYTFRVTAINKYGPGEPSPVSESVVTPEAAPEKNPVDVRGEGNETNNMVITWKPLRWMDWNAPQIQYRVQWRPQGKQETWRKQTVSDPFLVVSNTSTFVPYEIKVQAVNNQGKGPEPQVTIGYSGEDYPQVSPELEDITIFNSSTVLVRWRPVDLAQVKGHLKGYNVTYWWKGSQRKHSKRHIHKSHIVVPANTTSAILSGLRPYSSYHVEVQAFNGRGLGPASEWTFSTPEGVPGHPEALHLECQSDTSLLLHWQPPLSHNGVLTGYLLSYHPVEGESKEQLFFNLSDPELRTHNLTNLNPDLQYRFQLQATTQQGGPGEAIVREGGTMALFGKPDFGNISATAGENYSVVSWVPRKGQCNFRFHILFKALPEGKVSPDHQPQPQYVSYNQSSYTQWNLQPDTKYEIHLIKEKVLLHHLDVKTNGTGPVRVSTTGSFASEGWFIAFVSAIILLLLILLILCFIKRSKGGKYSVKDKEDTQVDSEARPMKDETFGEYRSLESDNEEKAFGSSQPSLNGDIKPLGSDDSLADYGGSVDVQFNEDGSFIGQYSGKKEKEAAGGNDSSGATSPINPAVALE

B1: 76H12 Fab construct 2 (humanized) (Fab, V domains shown)
VH: QVQLVQSGAEVKKPGASVKVSCKASGYTFTSYWMHWVRQAPGQGLEWMGNVYPGSGSTKYAQKFQGRVTMTRDTSTSTVYMELSSLRSEDTAVYYCARPGNYEGFAYWGQGTLVTVSS
VL: NIQLTQSPSSLSASVGDRVTITCRASESVDSYGSSFMHWYQQKPGKPPKLLIYLASNLESGVPSRFSGSGSGTDFTLTISSLQPEDFATYYCQQNNEDPWTFGQGTKLEIK
notes: also called Fab 2
For the molecule B1, in assay [1], the equilibrium dissociation constant (Kd) (usually the free concentration of one partner at which half of the binding sites on the other are occupied at equilibrium, for simple one-to-one binding) amounted to 88.8 nM; the koff – broadly, the first-order rate constant of dissociation – worked out at 0.0706 s⁻¹; the association rate constant (kon) (commonly a measure of how fast the partners come together) was determined as 797000 M⁻¹ s⁻¹.

B2: 04B06 (antibody, V domains shown)
VH: QVQLQESGPGLVKPSETLSLTCTVSGGSINSYYWSWIRQPAGKGLEWIGRFYTSGSTNHNPSLKSRVTMSVDTSKNQFSLKLTSVTAADTAVYYCAREWSGSFYGGDAFDIWGQGTMVTVSS
VL: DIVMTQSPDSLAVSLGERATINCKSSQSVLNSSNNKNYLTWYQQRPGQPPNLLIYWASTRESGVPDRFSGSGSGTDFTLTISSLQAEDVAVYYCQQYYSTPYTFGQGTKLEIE
notes: mAb from AlivaMab mice (human immunoglobulin repertoire), purified from hybridoma supernatant
Turning to B2, the half-maximal effective concentration (EC50) – broadly, the concentration giving half of the maximal effect – in the assay with human L1CAM on cells [2] is 1.1 nM; with human L1CAM on cells [4], 9.6 nM; in the assay with human L1CAM on cells [6], 2.3 nM. The dissociation constant (Kd) in assay [3] is 0.07 nM; in [5] it was 0.6 nM. Further, the binding result in assay [7] is given as “no binding”.

B3: TDI-Y-005 ADC with PNU-159682 and a cleavable Glu-Val-Cit linker (antibody, human IgG1, kappa, V domains shown)
VH: EVQMVESGGGLVQPGGSLRLSCAAPGFIFSSYNMNWVRQAPGKGLEWVSYISSSSSTTYYADSVKGRFTISRDNAKNSLYLQMNSLRDEDTAVYYCASLYSGYDYYYYYGMDVWGQGTTVTVSS
VL: DIVMTQTPLSSPVSLGQPASISCRSSQSLVHSDGNTYLSWLQQRPGQPPRVLIYKISKRFSGVPDRFSGSGAGTDFTLKISRVEAEDVGVYYCMQATQFPFTFGPGTKVDIKR
modifications: ThioBridge linker-payload on the interchain disulfide cysteine; ThioBridge-Glu[-Glu(OH)-Val-Cit-PAB-DMEA-PNU159682]-PEG(24) rebridging the reduced interchain disulfide cysteines; average DAR about 4
Turning to B3, in the assay with human L1CAM on cells [8], the “EC50 of cytotoxicity, HEK293T-hL1CAM cells (CellTiterGlo, 96 hours)” value was 0.03 nM; the “EC50 of cytotoxicity, MCF-7 cells (CellTiterGlo, 96 hours)” value stood at 0.4 nM; the “EC50 of cytotoxicity, MDA-MB-231 cells (CellTiterGlo, 96 hours)” value was 12.4 nM.

B4: 14A10 (antibody, V domains shown)
VH: EVQMVESGGGLVQPGGSLRLSCAAPGFIFSSYNMNWVRQAPGKGLEWVSYISSSSSTTYYADSVKGRFTISRDNAKNSLYLQMNSLRDEDTAVYYCASLYSGYDYYYYYGMDVWGQGTTVTVSS
VL: DIVMTQTPLSSPVSLGQPASISCRSSQSLVHSDGNTYLSWLQQRPGQPPRVLIYKISKRFSGVPDRFSGSGAGTDFTLKISRVEAEDVGVYYCMQATQFPFTFGPGTKVDIK
notes: mAb from AlivaMab mice
Consider B4, for which the 50% effective concentration (EC50) in the assay with human L1CAM on cells [2] came to 5.3 nM; with human L1CAM on cells [4], 8.9 nM; with human L1CAM on cells [6] it was 3.5 nM; in assay [7], 5.6 nM. The values for the dissociation constant (Kd) in [3] and in [5] were 1.2 nM and 3.2 nM, respectively.

B5: hu14A10 (antibody, V domains shown)
VH: EVQMVESGGGLVQPGGSLRLSCAAPGFIFSSYNMNWVRQAPGKGLEWVSYISSSSSTTYYADSVKGRFTISRDNAKNSLYLQMNSLRDEDTAVYYCASLYSGYDYYYYYGMDVWGQGTTVTVSS
VL: DIVMTQTPLSSPVSLGQPASISCRSSQSLVHSDGNTYLSWLQQRPGQPPRVLIYKISKRFSGVPDRFSGSGAGTDFTLKISRVEAEDVGVYYCMQATQFPFTFGPGTKVDIK
Consider B5, for which, in the assay with human L1CAM on cells [9], the EC50 amounted to 5.93 nM.

B6: 143G03 (antibody, V domains shown)
VH: QVQLRQSGAELVRPGTSVKMSCKASGYTFTNYYIHWVKQRPGQGLEWIGKIGPGSGSPYYNGMFKDKATLTVDTSSSTAYMQLSSLTSEDSAVYFCARWLLPFDYWGQGTTLTVSS
VL: QIVLSQSPGILSASPGEKVTMTCRASSSVNYMHWYQQKSGSSPKPWIFATSILASGVPPRFSGSGSGTSYSLTISSVEAEDTATYYCQQFSSDPLTFGAGTKLELK
notes: mAb from wild-type mice; also called 143G03 WT; murine 143G03 mAb
On to B6, for which the concentration giving a half-maximal response (EC50) with human L1CAM on cells [2] was determined as 0.35 nM; with human L1CAM on cells [4] it was 0.9 nM; in the assay with human L1CAM on cells [6], 1 nM; with human L1CAM on cells [9], 0.85 nM. In addition, the Kd in [3] was found to be 0.12 nM; in [5] it was 0.34 nM. Also, in assay [7], the binding result is “no binding”.

B7: Ch143G03-GF (antibody, V domains shown)
VH: QVQLRQSGAELVRPGTSVKMSCKASGYTFTNYYIHWVKQRPGQGLEWIGKIGPGSGSPYYNGMFKDKATLTVDTSSSTAYMQLSSLTSEDSAVYFCARWLLPFDYWGQGTTLTVSS
VL: QIVLSQSPGILSASPGEKVTMTCRASSSVNYMHWYQQKSGSSPKPWIFATSILASGVPPRFSGSGSGTSYSLTISSVEAEDTATYYCQQFSSDPLTFGAGTKLELK
notes: read as chimeric 143G03 (murine variable regions of 143G03, human constant regions). '-GF' is not explained
As for B7, the EC50 with human L1CAM on cells [9] turned out to be 0.727 nM.

B8: TDI-Y-004 ADC with PNU-159682 and a cleavable Glu-Val-Cit linker (antibody, human IgG1, kappa, V domains shown)
VH: QVQLVQSGAEVKKPGSSVKVSCKASGYTFTNYYIHWVRQAPGQGLEWMGKIGPGSGSPYYQGMFKDRVTITADESTSTAYMELSSLRSEDTAVYYCARWLLPFDYWGQGTLVTVSS
VL: EIVLTQSPGTLSLSPGERATLSCRASSSVNYMHWYQQKPGQAPRLLIYATSILASGIPDRFSGSGSGTDYTLTISRLEPEDFAVYYCQQFSSDPLTFGGGTKVEIKR
modifications: ThioBridge linker-payload on the interchain disulfide cysteine; ThioBridge-Glu[-Glu(OH)-Val-Cit-PAB-DMEA-PNU159682]-PEG(24) rebridging the reduced interchain disulfide cysteines; average DAR about 4
As to B8, in the assay with human L1CAM on cells [8], the “EC50 of cytotoxicity, HEK293T-hL1CAM cells (CellTiterGlo, 96 hours)” value came out at 0.008 nM; the “EC50 of cytotoxicity, MCF-7 cells (CellTiterGlo, 96 hours)” value is 0.03 nM; the “EC50 of cytotoxicity, MDA-MB-231 cells (CellTiterGlo, 96 hours)” value was found to be 3.3 nM.

B9: 15G02 (antibody, V domains shown)
VH: EVQLVESGGGLVQPGGSLRLSCGVSGFTFSHYWMNWVRQAPGKGLEWVANIMQDGSEKYYVDSVKGRFTISRDNAKNSLYLQMNSLRVEDTAVYYCARDRGVTTLFDYWGQGILVTVSS
VL: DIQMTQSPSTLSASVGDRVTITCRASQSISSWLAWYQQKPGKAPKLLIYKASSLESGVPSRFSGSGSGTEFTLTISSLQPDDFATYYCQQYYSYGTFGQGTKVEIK
notes: mAb from AlivaMab mice, purified from hybridoma supernatant
Regarding B9, the EC50 with human L1CAM on cells [2] was 1 nM; with human L1CAM on cells [4] it was 0.98 nM; in the assay with human L1CAM on cells [6], 2.6 nM. Further, the Kd in assay [3] came out at 0.58 nM; in [5], 0.93 nM. For the same molecule, the binding result in assay [7] is given as “no binding”.

B10: 13F04 (antibody, V domains shown)
VH: QVQLQQPGAELVKPGASVKLSCKASGYIFISYWMHWVKQRPGQGLEWIGEINPRNGRTNYNEKFKSKATLTVDKSSSTAYMQLTSLTSEDSAVYYCARGGDYGGSFDYWGQGTTLTVSS
VL: DIVLTQSPASLAVSLGQRATISCRASESVDSYGNSFMHWYQQKPGQPPKLLIYRASNLESGIPARFSGSGSRTDFTLTVNPVEADDVATYYCQQSNEDPWTFGGGTKLEIK
notes: mAb from wild-type mice, purified from the supernatant of a hybridoma clone; also called L1CAM mAb 13F04
Take B10: the concentration giving a half-maximal response (EC50) stood at 1.2 nM with human L1CAM on cells [2], 1.7 nM with human L1CAM on cells [4] and 4 nM with human L1CAM on cells [6]. Moreover, the values for the Kd in assay [3] and in [5] were 1.13 nM and 19.8 nM, respectively. For the same molecule, in assay [7], the binding result was “no binding”.

B11: 76H12 Fab construct 1 (chimeric; parental mouse 76H12 V-regions) (Fab, V domains shown)
VH: QVQLQQPGSDLVRPGTSVKLSCKASGYTFTSYWMHWVKQRPGQGLEWIGNVYPGSGSTKYDEKFKTKATLTVDTSSNTAYMELSSLTSEDSAVYYCTRPGNYEGFAYWGQGTLVTVSA
VL: NIVLTQSPASLAVSLGQRATISCRASESVDSYGSSFMHWYQQKPGQPPKLLIYLASNLESGVPARFSGSGSRTDFTLTIDPVEADDAATYYCQQNNEDPWTFGGGTKLEIK
notes: also called Fab 1; chimeric 76H12 Fab
As to B11, in [1], the Kd is 39.6 nM, the dissociation rate constant (koff) amounted to 0.0232 s⁻¹ and the kon was 586000 M⁻¹ s⁻¹.

B12: 13G04 (antibody, V domains shown)
VH: QVQLVQSGAEVKKPGASVKVSCKASGYTFIGYYLHWVRQAPGQGLEWMGWINPNSGGTNSAQKFQGRVTMTRDTSISTTYMDLSRLRSDDTAVYYCARGGLERRDAFDIWGQGTLVTVSS
VL: DIQMTQSPSTLSASVGDRVTITCRASQSISNWLAWYQQKPGKAPNLLIYKASSLESGVPSRFSGSGSGTEFTLTISSLQPDDFATYYCQQYDTYRTFGQGTKVEIK
notes: as for B9
On to B12, for which the EC50 in the assay with human L1CAM on cells [2] worked out at 4.8 nM; in the assay with human L1CAM on cells [4], 6.7 nM; with human L1CAM on cells [6] it was 4.8 nM. Moreover, the dissociation constant Kd in assay [5] is 3.2 nM; in assay [10] it was under 0.02 nM. Moreover, in assay [7], the binding result is listed as “no binding”.
